From US20140087995A1 (published 2014) come the findings set out here.

Numbered stars: 1 amine (or outer) side, 2 acyl side, 3 side chain; on linkers, the order of the positions; unused ones are H or OH. Bridge positions count the residues as written; N and C are the ends. Side chains are listed from the residue outwards. Ends that are not written are not given here. * marks the point of attachment. C20 diacid = O=C(O)CCCCCCCCCCCCCCCCCCC(=O)*; γGlu = O=C(O)[C@H](CCC(=O)[*:2])N[*:1]; AEEA = NCCOCCOCC(=O)O

First the molecules themselves.
T1: human calcitonin receptor (human, UniProt P30988 25-474)
T1 construct: whole, on cells; also called hCTR; hCT
T1 sequence (looked up): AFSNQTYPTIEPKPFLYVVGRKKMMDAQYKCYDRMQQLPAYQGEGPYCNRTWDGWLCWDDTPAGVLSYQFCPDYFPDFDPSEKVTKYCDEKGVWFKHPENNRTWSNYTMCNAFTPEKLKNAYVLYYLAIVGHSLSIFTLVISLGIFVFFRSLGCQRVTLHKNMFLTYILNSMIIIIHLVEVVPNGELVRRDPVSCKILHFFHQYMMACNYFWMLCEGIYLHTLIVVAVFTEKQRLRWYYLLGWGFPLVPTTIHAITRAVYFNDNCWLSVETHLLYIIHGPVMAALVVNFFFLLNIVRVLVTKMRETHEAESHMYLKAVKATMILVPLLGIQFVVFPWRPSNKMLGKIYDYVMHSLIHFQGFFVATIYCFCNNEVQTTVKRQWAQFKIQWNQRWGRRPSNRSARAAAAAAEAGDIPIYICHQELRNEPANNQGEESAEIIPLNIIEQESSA

T2: rat calcitonin receptor (rat, UniProt P32214 25-516)
T2 construct: whole, on cells; also called rCTR; rat calcitonin (a) receptor
T2 sequence (looked up): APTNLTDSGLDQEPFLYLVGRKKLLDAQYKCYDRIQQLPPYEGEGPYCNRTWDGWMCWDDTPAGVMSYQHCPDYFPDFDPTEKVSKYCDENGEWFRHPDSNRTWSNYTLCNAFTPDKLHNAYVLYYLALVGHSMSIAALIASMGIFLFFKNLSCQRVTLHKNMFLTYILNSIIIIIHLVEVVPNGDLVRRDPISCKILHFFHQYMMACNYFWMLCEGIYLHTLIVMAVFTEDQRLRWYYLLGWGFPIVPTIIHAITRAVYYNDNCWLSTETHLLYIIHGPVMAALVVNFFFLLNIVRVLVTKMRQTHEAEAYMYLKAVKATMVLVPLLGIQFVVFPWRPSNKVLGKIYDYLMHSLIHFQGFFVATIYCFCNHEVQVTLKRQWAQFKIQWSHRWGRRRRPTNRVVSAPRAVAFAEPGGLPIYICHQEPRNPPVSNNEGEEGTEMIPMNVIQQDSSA

T3: rat amylin receptor (rat calcitonin receptor + rat RAMP 3) (rat, UniProt P32214 25-516; Q9JJ73 23-147)
T3 construct: whole, on cells; also called rAmylin-R; rat amylin 3(a) receptor
T3 sequence (looked up) 1: T2 sequence (looked up)
T3 sequence (looked up) 2: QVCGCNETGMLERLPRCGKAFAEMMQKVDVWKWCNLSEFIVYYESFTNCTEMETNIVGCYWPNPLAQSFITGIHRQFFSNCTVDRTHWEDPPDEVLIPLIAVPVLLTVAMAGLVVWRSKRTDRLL

B1: N^ε1-[2-[2-[2-[[(4S)-4-carboxy-4-(19-carboxynonadecanoylamino)butanoyl]amino]ethoxy]ethoxy]acetyl]-[Gly14,Arg17,Pro21,Pro27,Pro31]-h-amylin (peptide)
peptide: K([AEEA-γGlu-C20 diacid])CNTATCATQRLAGFLRHSSPNFGAIPSSTPVGSNTY-NH2
modifications: disulfide 2-7; N-terminus assumed
SMILES: CC[C@H](C)[C@H](NC(=O)[C@H](C)NC(=O)CNC(=O)[C@H](Cc1ccccc1)NC(=O)[C@H](CC(N)=O)NC(=O)[C@@H]1CCCN1C(=O)[C@H](CO)NC(=O)[C@H](CO)NC(=O)[C@H](Cc1c[nH]cn1)NC(=O)[C@H](CCCNC(=N)N)NC(=O)[C@H](CC(C)C)NC(=O)[C@H](Cc1ccccc1)NC(=O)CNC(=O)[C@H](C)NC(=O)[C@H](CC(C)C)NC(=O)[C@H](CCCNC(=N)N)NC(=O)[C@H](CCC(N)=O)NC(=O)[C@@H](NC(=O)[C@H](C)NC(=O)[C@@H]1CSSC[C@H](NC(=O)[C@@H](N)CCCCNC(=O)COCCOCCNC(=O)CC[C@H](NC(=O)CCCCCCCCCCCCCCCCCCC(=O)O)C(=O)O)C(=O)N[C@@H](CC(N)=O)C(=O)N[C@@H]([C@@H](C)O)C(=O)N[C@@H](C)C(=O)N[C@@H]([C@@H](C)O)C(=O)N1)[C@@H](C)O)C(=O)N1CCC[C@H]1C(=O)N[C@@H](CO)C(=O)N[C@@H](CO)C(=O)N[C@H](C(=O)N1CCC[C@H]1C(=O)N[C@H](C(=O)NCC(=O)N[C@@H](CO)C(=O)N[C@@H](CC(N)=O)C(=O)N[C@H](C(=O)N[C@@H](Cc1ccc(O)cc1)C(N)=O)[C@@H](C)O)C(C)C)[C@@H](C)O
notes: synthetic analogue of human amylin; also called compound 71
B2: N^ε1-[2-[2-[2-[[(4S)-4-carboxy-4-(19-carboxynonadecanoylamino)butanoyl]amino]ethoxy]ethoxy]acetyl]-[His14,Arg17,Pro21,Pro27,Arg34]-h-amylin (peptide)
peptide: K([AEEA-γGlu-C20 diacid])CNTATCATQRLAHFLRHSSPNFGAIPSSTNVGRNTY-NH2
modifications: disulfide 2-7; N-terminus assumed
SMILES: CC[C@H](C)[C@H](NC(=O)[C@H](C)NC(=O)CNC(=O)[C@H](Cc1ccccc1)NC(=O)[C@H](CC(N)=O)NC(=O)[C@@H]1CCCN1C(=O)[C@H](CO)NC(=O)[C@H](CO)NC(=O)[C@H](Cc1c[nH]cn1)NC(=O)[C@H](CCCNC(=N)N)NC(=O)[C@H](CC(C)C)NC(=O)[C@H](Cc1ccccc1)NC(=O)[C@H](Cc1c[nH]cn1)NC(=O)[C@H](C)NC(=O)[C@H](CC(C)C)NC(=O)[C@H](CCCNC(=N)N)NC(=O)[C@H](CCC(N)=O)NC(=O)[C@@H](NC(=O)[C@H](C)NC(=O)[C@@H]1CSSC[C@H](NC(=O)[C@@H](N)CCCCNC(=O)COCCOCCNC(=O)CC[C@H](NC(=O)CCCCCCCCCCCCCCCCCCC(=O)O)C(=O)O)C(=O)N[C@@H](CC(N)=O)C(=O)N[C@@H]([C@@H](C)O)C(=O)N[C@@H](C)C(=O)N[C@@H]([C@@H](C)O)C(=O)N1)[C@@H](C)O)C(=O)N1CCC[C@H]1C(=O)N[C@@H](CO)C(=O)N[C@@H](CO)C(=O)N[C@H](C(=O)N[C@@H](CC(N)=O)C(=O)N[C@H](C(=O)NCC(=O)N[C@@H](CCCNC(=N)N)C(=O)N[C@@H](CC(N)=O)C(=O)N[C@H](C(=O)N[C@@H](Cc1ccc(O)cc1)C(N)=O)[C@@H](C)O)C(C)C)[C@@H](C)O
notes: synthetic analogue of human amylin; also called compound 84
B3: N^ε1-[2-[2-[2-[[(4S)-4-carboxy-4-(19-carboxynonadecanoylamino)butanoyl]amino]ethoxy]ethoxy]acetyl]-[His14,Arg17,Pro21,Pro27,Pro34]-h-amylin (peptide)
peptide: K([AEEA-γGlu-C20 diacid])CNTATCATQRLAHFLRHSSPNFGAIPSSTNVGPNTY-NH2
modifications: disulfide 2-7; N-terminus assumed
SMILES: CC[C@H](C)[C@H](NC(=O)[C@H](C)NC(=O)CNC(=O)[C@H](Cc1ccccc1)NC(=O)[C@H](CC(N)=O)NC(=O)[C@@H]1CCCN1C(=O)[C@H](CO)NC(=O)[C@H](CO)NC(=O)[C@H](Cc1c[nH]cn1)NC(=O)[C@H](CCCNC(=N)N)NC(=O)[C@H](CC(C)C)NC(=O)[C@H](Cc1ccccc1)NC(=O)[C@H](Cc1c[nH]cn1)NC(=O)[C@H](C)NC(=O)[C@H](CC(C)C)NC(=O)[C@H](CCCNC(=N)N)NC(=O)[C@H](CCC(N)=O)NC(=O)[C@@H](NC(=O)[C@H](C)NC(=O)[C@@H]1CSSC[C@H](NC(=O)[C@@H](N)CCCCNC(=O)COCCOCCNC(=O)CC[C@H](NC(=O)CCCCCCCCCCCCCCCCCCC(=O)O)C(=O)O)C(=O)N[C@@H](CC(N)=O)C(=O)N[C@@H]([C@@H](C)O)C(=O)N[C@@H](C)C(=O)N[C@@H]([C@@H](C)O)C(=O)N1)[C@@H](C)O)C(=O)N1CCC[C@H]1C(=O)N[C@@H](CO)C(=O)N[C@@H](CO)C(=O)N[C@H](C(=O)N[C@@H](CC(N)=O)C(=O)N[C@H](C(=O)NCC(=O)N1CCC[C@H]1C(=O)N[C@@H](CC(N)=O)C(=O)N[C@H](C(=O)N[C@@H](Cc1ccc(O)cc1)C(N)=O)[C@@H](C)O)C(C)C)[C@@H](C)O
notes: synthetic analogue of human amylin; also called compound 68
B4: N^ε1-[2-[2-[2-[[(4S)-4-carboxy-4-(19-carboxynonadecanoylamino)butanoyl]amino]ethoxy]ethoxy]acetyl]-[His14,Arg17,Pro21,Pro27,His34]-h-amylin (peptide)
peptide: K([AEEA-γGlu-C20 diacid])CNTATCATQRLAHFLRHSSPNFGAIPSSTNVGHNTY-NH2
modifications: disulfide 2-7; N-terminus assumed
SMILES: CC[C@H](C)[C@H](NC(=O)[C@H](C)NC(=O)CNC(=O)[C@H](Cc1ccccc1)NC(=O)[C@H](CC(N)=O)NC(=O)[C@@H]1CCCN1C(=O)[C@H](CO)NC(=O)[C@H](CO)NC(=O)[C@H](Cc1c[nH]cn1)NC(=O)[C@H](CCCNC(=N)N)NC(=O)[C@H](CC(C)C)NC(=O)[C@H](Cc1ccccc1)NC(=O)[C@H](Cc1c[nH]cn1)NC(=O)[C@H](C)NC(=O)[C@H](CC(C)C)NC(=O)[C@H](CCCNC(=N)N)NC(=O)[C@H](CCC(N)=O)NC(=O)[C@@H](NC(=O)[C@H](C)NC(=O)[C@@H]1CSSC[C@H](NC(=O)[C@@H](N)CCCCNC(=O)COCCOCCNC(=O)CC[C@H](NC(=O)CCCCCCCCCCCCCCCCCCC(=O)O)C(=O)O)C(=O)N[C@@H](CC(N)=O)C(=O)N[C@@H]([C@@H](C)O)C(=O)N[C@@H](C)C(=O)N[C@@H]([C@@H](C)O)C(=O)N1)[C@@H](C)O)C(=O)N1CCC[C@H]1C(=O)N[C@@H](CO)C(=O)N[C@@H](CO)C(=O)N[C@H](C(=O)N[C@@H](CC(N)=O)C(=O)N[C@H](C(=O)NCC(=O)N[C@@H](Cc1c[nH]cn1)C(=O)N[C@@H](CC(N)=O)C(=O)N[C@H](C(=O)N[C@@H](Cc1ccc(O)cc1)C(N)=O)[C@@H](C)O)C(C)C)[C@@H](C)O
notes: synthetic analogue of human amylin; also called compound 80
B5: N^ε1-[2-[2-[2-[[(4S)-4-carboxy-4-(19-carboxynonadecanoylamino)butanoyl]amino]ethoxy]ethoxy]acetyl]-[His14,Arg17,Pro21,Pro27,Pro31]-h-amylin (peptide)
peptide: K([AEEA-γGlu-C20 diacid])CNTATCATQRLAHFLRHSSPNFGAIPSSTPVGSNTY-NH2
modifications: disulfide 2-7; N-terminus assumed
SMILES: CC[C@H](C)[C@H](NC(=O)[C@H](C)NC(=O)CNC(=O)[C@H](Cc1ccccc1)NC(=O)[C@H](CC(N)=O)NC(=O)[C@@H]1CCCN1C(=O)[C@H](CO)NC(=O)[C@H](CO)NC(=O)[C@H](Cc1c[nH]cn1)NC(=O)[C@H](CCCNC(=N)N)NC(=O)[C@H](CC(C)C)NC(=O)[C@H](Cc1ccccc1)NC(=O)[C@H](Cc1c[nH]cn1)NC(=O)[C@H](C)NC(=O)[C@H](CC(C)C)NC(=O)[C@H](CCCNC(=N)N)NC(=O)[C@H](CCC(N)=O)NC(=O)[C@@H](NC(=O)[C@H](C)NC(=O)[C@@H]1CSSC[C@H](NC(=O)[C@@H](N)CCCCNC(=O)COCCOCCNC(=O)CC[C@H](NC(=O)CCCCCCCCCCCCCCCCCCC(=O)O)C(=O)O)C(=O)N[C@@H](CC(N)=O)C(=O)N[C@@H]([C@@H](C)O)C(=O)N[C@@H](C)C(=O)N[C@@H]([C@@H](C)O)C(=O)N1)[C@@H](C)O)C(=O)N1CCC[C@H]1C(=O)N[C@@H](CO)C(=O)N[C@@H](CO)C(=O)N[C@H](C(=O)N1CCC[C@H]1C(=O)N[C@H](C(=O)NCC(=O)N[C@@H](CO)C(=O)N[C@@H](CC(N)=O)C(=O)N[C@H](C(=O)N[C@@H](Cc1ccc(O)cc1)C(N)=O)[C@@H](C)O)C(C)C)[C@@H](C)O
notes: synthetic analogue of human amylin; also called compound 61

The target in one assay is T1, human calcitonin receptor. Briefly: ratio of binding IC50s: human calcitonin receptor over human amylin receptor (reference). The essentials: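 Competition binding by SPA with cell membranes (35 ng/μL) and SPA beads in 50 mM Hepes pH 7.4 with 1 mM CaCl2, 5 mM MgCl2, 0.1% OA and 0.02% Tween20. Incubated 120 min at 25 °C with shaking, then counted.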
Turning to B1, the “Ratio hCT/hAmylin binding” value was 32.

For the molecule B2, the “Ratio hCT/hAmylin binding” value is 120.

B3: the “Ratio hCT/hAmylin binding” value is 64.4.

For B4, the “Ratio hCT/hAmylin binding” value was 68.1.

In the case of B5, the “Ratio hCT/hAmylin binding” value worked out at 66.7.

In the next assay the target is T2, rat calcitonin receptor. Briefly: SPA competition with 125I-calcitonin, membranes of BHK cells with rat calcitonin receptor (Assay VIII).
B1: the IC50 came out at 44.8 nM.

Turning to B2, the IC50 stood at 477 nM.

Regarding B3, the IC50 worked out at 28.5 nM.

As for B4, the IC50 stood at 60.4 nM.

With B5, the IC50 was determined as 33.4 nM.

In a further assay the target is T2, rat calcitonin receptor. Briefly: ratio of binding IC50s: rat calcitonin receptor over rat amylin receptor (reference).
In the case of B1, the “Ratio rCT/rAmylin binding” value came out at 162.

Regarding B2, the “Ratio rCT/rAmylin binding” value amounted to 94.3.

With B3, the “Ratio rCT/rAmylin binding” value came out at 122.

B4: the “Ratio rCT/rAmylin binding” value was 36.2.

Turning to B5, the “Ratio rCT/rAmylin binding” value came to 39.7.

Another assay has as its target T3, rat amylin receptor (rat calcitonin …). Briefly: SPA competition with 125I-rat amylin, membranes of BHK cells with rat calcitonin receptor + rat RAMP3 (Assay VI).
Consider B1, for which the IC50 is 0.276 nM.

Consider B2, for which the IC50 was 5.05 nM.

On to B3, for which the 50% inhibitory concentration (IC50) is 0.234 nM.

For B4, the half-inhibitory concentration (IC50) came to 1.67 nM.

Turning to B5, the half-inhibitory concentration (IC50) amounted to 0.842 nM.
